According to US20240190992A1 (UNIVERSITY PUBLIC CORPORATION OSAKA, published 2024):

How the values were obtained:
[1] = target: T1, mouse EpCAM (mouse, UniProt Q99JW5 24-315); assay: living cell immunostaining of KMC07 co-cultured with mouse PA6 cells
T1 construct: whole, on cells; also called EpCAM on the mouse fibroblast cell line PA6
T1 sequence (looked up): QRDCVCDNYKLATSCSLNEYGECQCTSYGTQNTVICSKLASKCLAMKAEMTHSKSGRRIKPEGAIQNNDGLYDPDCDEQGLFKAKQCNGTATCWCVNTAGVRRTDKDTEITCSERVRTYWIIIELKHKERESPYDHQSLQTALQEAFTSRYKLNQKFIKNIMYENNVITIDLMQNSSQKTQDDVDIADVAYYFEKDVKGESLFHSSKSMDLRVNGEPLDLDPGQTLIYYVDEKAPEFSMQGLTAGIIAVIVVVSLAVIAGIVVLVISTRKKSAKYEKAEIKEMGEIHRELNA
Text: Since it was considered that EpCAM was so specially modified with KMC07 that its expression pattern was changed, expression of EpCAM was confirmed using alive or fixed Triton X-100-treated KMC07 by immunostaining. At this time, the anti-KMC07 antibody 1F9D4 and a commercially available EpCAM antibody were used as primary antibodies. When KMC07 was immunostained as living cells, signals were obtained on the cell membrane of KMC07 and the cell membrane of PA6 with the anti-EpCAM antibody (indicated by the arrow in FIG. 12). The staining pattern of KMC07 was similar to that with 1F9D4. Since the anti-EpCAM antibody is known to cross human, mouse and rat EpCAMs, it is considered that the anti-EpCAM antibody also reacted to the mouse fibroblast cell line PA6.

[2] = target: T2, EpCAM (epithelial cell adhesion molecule) (human, UniProt P16422 24-314); assay: antibody affinity column on KMC07 whole cell extract, silver staining, mass analysis of the eluted band
T2 construct: whole, on cells; also called human EpCAM
T2 sequence (looked up): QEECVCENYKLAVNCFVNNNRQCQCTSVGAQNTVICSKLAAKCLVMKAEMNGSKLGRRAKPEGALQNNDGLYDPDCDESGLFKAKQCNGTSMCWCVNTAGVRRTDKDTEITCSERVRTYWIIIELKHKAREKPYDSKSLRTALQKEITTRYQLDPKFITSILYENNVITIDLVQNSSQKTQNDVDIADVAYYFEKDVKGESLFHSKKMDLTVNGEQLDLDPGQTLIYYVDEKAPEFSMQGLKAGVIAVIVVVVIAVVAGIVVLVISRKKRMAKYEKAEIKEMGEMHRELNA
Text: To an affinity column, 5 clones of the anti-KMC07 antibody were bound and the KMC07 whole cell extract was flown to react the antibody with the antigen. Thereafter, the antibody was eluted and evaluated by silver staining. […] Among them, the broad band of 75 to 100 kDa (mark 4 in the figure) detected with 1B4G4 was similar to that in FIG. 10, and thus considered to be promising as a candidate antigen.

binding result [1]: no binding
binding result [2]: binds
B1: 1F9D4 (antibody III) (antibody, IgG2b, V domains shown)
VH: EVQLVESGGGLVQPGRSLKLSCAASGFTFSDYNMAWVRQAPKKGLEWVATINYDGISTYYRDSVKGRFTISRDNAKSTLYLQMDSLRSEDTATYYCARHSYVYYALGVPFAYWGQGTLVTVSS
VL: DIQMTQSPSLLSASVGDRVTINCKASQNINKYLNWYQQKLGEAPKLLIYNTNSLQTGIPSRFSGSGSGTDYTLTISSLQPEDFGTYFCFQHNSWPLTFGSGTKLEIK
notes: also called IF9D4; anti-KMC07 antibody 1F9D4
